Reference: publication PMC11858715 (Molecules, 2025)

Legend:
Assay in all cases: other fluorescence titration
Details in all cases: both partners purified
[1] = target: T1, sense peptide S1 ([…]), ammodytoxin A segment from position 6 to 11 (Vipera ammodytes)
T1 construct: source: synthetic peptide, bought: GenScript Biotech B.V

[2] = target: T2, sense peptide S2 (YIYRNYPDF), ammodytoxin A segment from position 115 to 124 (Vipera ammodytes)
T2 peptide: YIYRNYPDF

[3] = target: T2, sense peptide S2 (YIYRNYPDF), …

B1: antisense peptide S1A1 (SHHYEP) (designed binder)
peptide: SHHYEP
notes: source: synthetic peptide, bought: GenScript Biotech B.V
B1 was tested, and the Kd [1] was 4.9 µM.

SHHYSP (designed binder) [antisense peptide S1A2 (SHHYSP)] gave a Kd [1] of 1.4 µM.

For VNISVIGIK (designed binder) [antisense peptide S2A2 (VNISVIGIK)], the Kd [2] was 8.9 µM and the “stoichiometry N” value [3] was 1.

For INISIVGVK (designed binder) [antisense peptide S2A1 (INISIVGVK)], the Kd [2] was 1.1 µM and the “stoichiometry N” value [3] was 1.
